Data: patent US20240101635A1 (AKSTON BIOSCIENCES, published 2024)
Where a chain is given by its changes, count along the chain named. Names may count otherwise. Read-outs that look alike come from different tables or passages of the source. Each block holds one binder with its values, some of them ahead of it.

Columns and labels:
[1] = target: T1, biotinylated recombinant human Fc(gamma) receptor I (human, UniProt P12314 16-288, biotinylated (site not stated)); test: ELISA, fusion protein coated, biotinylated rhFc(gamma)RI in solution, pH 7.4
T1 construct: Bought reagent, used as surrogate for canine/feline Fc(gamma)RI; also called rhFc(gamma) receptor I; Fc(gamma)RI
Protocol: (§1) The binding of insulin-Fc fusion proteins to the Fc(gamma) receptor I at pH 7.4 was conducted using an ELISA assay as follows. Since neither canine nor feline Fc(gamma) receptor I was not commercially available, human Fc(gamma) receptor I (i.e., rhFc(gamma) receptor I) was used as a surrogate mammalian receptor. Insulin-Fc compounds were diluted to 10 μg/mL in sodium bicarbonate buffer at pH 9.6 and coated on Maxisorp (Nunc) microtiter plates overnight at 4° C., after which the microplate strips were washed 5 times with PBST (PBS/0.05% Tween-20) buffer and blocked with Superblock blocking reagent (ThermoFisher). Serial dilutions of biotinylated rhFc(gamma) receptor I (recombinant human Fc(gamma)R-I; R&D Systems) were prepared in PBST/10% Superblock buffer from 6000 ng/mL to 8.2 ng/mL and loaded at 100 μL/well onto the microplate strips coated with insulin-Fc fusion protein. The microtiter plate was incubated for 1 hour at room temperature after which the microplate strips were washed 5 times with PBST and then loaded with 100 μL/well of streptavidin-HRP diluted 1:10000 in PBST/10% Superblock buffer. After incubating for 45 min, the microplate strips were washed again 5 times with PBST. TMB was added to reveal the bound Fc(gamma) receptor I proteins and stopped with ELISA stop reagent (Boston Bioproducts). The plate was read in an ELISA plate reader at 450 nm, and the OD values (proportional to the binding of rhFc(gamma) receptor I to insulin-Fc protein) were plotted against log concentrations of rhFc(gamma) receptor I added to each well to generate binding curves using GraphPad Prism software.
The insulin-Fc fusion protein of SEQ ID NO: 40 was synthesized in HEK293 cells according to the procedure of Example 1 and purified using a Protein A column according to Example 3. The structure of the insulin-Fc fusion protein was confirmed according to Example 4 by non-reducing and reducing CE-SDS, and the sequence was further identified by LC-MS with glycan removal according to Example 5. The protein yield was 174 mg/L at this stage. The % homodimer for the sequence was measured by size-exclusion chromatography according to Example 6 and was determined to be 98.9% resulting in a homodimer titer of 172 mg/L which meets the manufacturing design criteria.

[2] = target: T1, biotinylated recombinant human …; test: as above; remark: listed apart in the source
Protocol: as §1
Low Fc(gamma) receptor binding is most likely to correlate with minimum immunogenicity.

human insulin receptor [3] = target: T2, human insulin receptor (human, UniProt P06213 28-1382); test: competition with biotinylated RHI on IM-9 cells, flow cytometry, 4 C
T2 construct: whole, on cells; Endogenous receptor on IM-9 cells; also called IR
Protocol: (§2) 40 μL of an IM-9 cell suspension (8×10⁶ cells/mL) was then added to each well by multichannel pipette, mixed again gently and incubated on ice for 30 min to allow competitive binding on the insulin receptor on IM-9 cells. Cells were then washed twice with 275 μL of ice-cold FACS wash buffer (HBSS/2 mM EDTA/0.1% Na-azide+0.5% horse serum) by centrifuging the V-bottom plate at 3000 rpm for 3 min and aspirating the supernatant. Cells were then resuspended in 40 μL of FACS staining medium containing 1:100 diluted Streptavidin-PE (Life Technologies) for 20 min on ice. Cells were then washed once with 275 μL of ice-cold FACS buffer and finally fixed with 3% paraformaldehyde for 10 min at room temp. Cells were then washed once with 275 μL of ice-cold FACS buffer and resuspended in 250 μl of FACS buffer for analysis.
(§3) The V-bottom plates containing cells were then analyzed on a Guava 8-HT flow cytometer (Millipore). Biotinylated-RHI binding to insulin receptor was quantitated by the median fluorescence intensity (MFI) of the cells on the FACS FL-2 channel for each concentration of the test compound. Control wells were labeled only with biotinylated-RHI and were used to calculate the percent (%) inhibition resulting from each test compound concentration. The % inhibition by test compounds of biotinylated-RHI binding on IM-9 cells was plotted against log concentrations of the test compound, and the resulting IC50 values were calculated using GraphPad Prism (GraphPad Software, La Jolla, CA) for the test compounds. Lower IC50 values of the test compound therefore indicate greater levels of biotinylated-RHI inhibition at lower concentrations indicating stronger binding of the insulin-Fc fusion protein to the insulin receptor. A control compound, such as unlabeled recombinant human insulin (RHI) was also used as an internal standard to generate an RHI IC50 against which a given compound IC50 could be ratioed (IC50(compound)/IC50(RHI)). Lower IC50 ratios have more similar binding to RHI (stronger binding to insulin receptor), while higher IC50 ratios have weaker binding to the insulin receptor relative to RHI.

human insulin receptor [4] = target: T2, human insulin receptor; test: as above; remark: listed apart in the source
Protocol: as §2, §3

biotinylated canine FcRn = biotinylated canine FcRn (canine, UniProt A0A8I3PFR8 25-347, biotinylated (site not stated)); test: ELISA pH 5.5, fusion protein coated, biotinylated canine FcRn titrated
Protocol: Insulin-Fc fusion proteins comprising Fc fragments of canine or feline origin were diluted to 10 μg/ml in sodium bicarbonate pH 9.6 buffer and coated in duplicate on Maxisorb ELISA plate strips for 1-2 hours at RT. The strips were then washed 4 times with PBST (PBS/0.1% Tween-20) buffer and blocked with Superblock blocking reagent (ThermoFisher). Strips for FcRn binding were then washed again twice with pH 5.5 MES/NaCl/Tween (50 mM MES/l50 mM NaCl/0.1% Tween-20) buffer before addition of the FcRn reagent (biotinylated canine FcRn; Immunitrack). […] Serial dilutions (1:3× dilutions) of biotinylated FcRn reagent were prepared in pH 5.5 MES/NaCl/Tween/10% Superblock buffer at concentrations from 1000 ng/ml to 0.45 ng/ml and loaded at 100 μL/well using a multichannel pipettor onto the strips coated with the insulin-Fc fusion protein compounds. The assay plate was then incubated for 1 hour at room temperature. FcRn binding strips were washed 4 times with pH 5.5 MES/NaCl/Tween buffer and then loaded with 100 μl/well […] diluted 1:10000 in pH 5.5 MES/NaCl/10% Superblock buffer. After incubating for 45 minutes, strips were washed again 4 times with pH 5.5 MES/NaCl/Tween buffer. TMB was finally added to reveal the bound biotinylated-canine FcRn reagent, and the color development was stopped with the ELISA stop reagent. The plate was read in an ELISA plate reader at a wavelength of 450 nm. The OD values (proportional to the binding of canine-FcRn to the insulin-Fc fusion protein test compounds) were plotted against log concentrations of FcRn added to each well to generate binding curves using GraphPad Prism software. EC50 values for each binding curve were calculated to compare between different compounds.

human insulin receptor [5] = target: T2, human insulin receptor; test: competition with biotinylated RHI on IM-9 cells, flow cytometry, 4 C; remark: listed apart in the source

biotinylated canine FcRn, sequence (A0A8I3PFR8 entry or part of it): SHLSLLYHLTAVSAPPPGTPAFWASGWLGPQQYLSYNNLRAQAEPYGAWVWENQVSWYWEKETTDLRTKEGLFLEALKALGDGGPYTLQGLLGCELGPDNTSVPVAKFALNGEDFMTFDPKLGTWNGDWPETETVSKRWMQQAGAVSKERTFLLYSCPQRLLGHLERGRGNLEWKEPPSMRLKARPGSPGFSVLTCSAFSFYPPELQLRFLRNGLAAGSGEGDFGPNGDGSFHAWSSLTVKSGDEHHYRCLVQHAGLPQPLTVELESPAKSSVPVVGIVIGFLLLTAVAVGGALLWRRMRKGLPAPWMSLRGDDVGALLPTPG
T2 sequence (P06213 28-1382): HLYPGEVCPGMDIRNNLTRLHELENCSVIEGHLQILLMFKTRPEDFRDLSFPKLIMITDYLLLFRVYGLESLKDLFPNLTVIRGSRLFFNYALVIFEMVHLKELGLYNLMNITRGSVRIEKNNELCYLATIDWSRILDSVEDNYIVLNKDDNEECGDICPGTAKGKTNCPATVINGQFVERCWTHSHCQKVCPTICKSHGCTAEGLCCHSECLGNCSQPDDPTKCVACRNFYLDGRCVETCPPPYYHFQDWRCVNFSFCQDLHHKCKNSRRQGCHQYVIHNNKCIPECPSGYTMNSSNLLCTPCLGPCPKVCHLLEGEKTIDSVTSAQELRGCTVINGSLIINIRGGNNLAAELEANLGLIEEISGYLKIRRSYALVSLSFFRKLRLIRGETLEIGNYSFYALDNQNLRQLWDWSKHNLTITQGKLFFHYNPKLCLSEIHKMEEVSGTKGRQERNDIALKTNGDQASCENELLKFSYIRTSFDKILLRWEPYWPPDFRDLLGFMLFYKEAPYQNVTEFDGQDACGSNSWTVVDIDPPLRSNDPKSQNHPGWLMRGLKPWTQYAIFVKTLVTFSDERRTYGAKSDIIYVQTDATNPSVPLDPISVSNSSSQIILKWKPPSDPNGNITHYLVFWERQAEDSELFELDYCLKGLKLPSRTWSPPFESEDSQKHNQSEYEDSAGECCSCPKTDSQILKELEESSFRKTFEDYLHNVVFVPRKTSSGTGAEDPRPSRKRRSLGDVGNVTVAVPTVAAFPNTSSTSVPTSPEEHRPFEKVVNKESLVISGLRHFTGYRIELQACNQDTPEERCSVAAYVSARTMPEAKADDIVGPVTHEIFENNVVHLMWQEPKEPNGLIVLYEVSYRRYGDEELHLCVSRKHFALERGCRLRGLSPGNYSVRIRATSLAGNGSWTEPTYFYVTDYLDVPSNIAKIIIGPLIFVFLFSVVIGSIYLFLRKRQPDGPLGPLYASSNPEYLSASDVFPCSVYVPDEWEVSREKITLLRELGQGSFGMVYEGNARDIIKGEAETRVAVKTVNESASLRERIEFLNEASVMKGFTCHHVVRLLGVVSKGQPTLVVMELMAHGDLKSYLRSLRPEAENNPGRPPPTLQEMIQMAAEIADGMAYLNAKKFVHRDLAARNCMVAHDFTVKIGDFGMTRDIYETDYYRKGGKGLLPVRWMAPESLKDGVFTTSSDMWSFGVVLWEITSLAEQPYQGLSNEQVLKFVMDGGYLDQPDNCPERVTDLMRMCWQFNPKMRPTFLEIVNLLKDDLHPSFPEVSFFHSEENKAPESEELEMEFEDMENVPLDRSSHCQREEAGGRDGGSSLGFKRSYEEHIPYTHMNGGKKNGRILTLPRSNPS
T1 sequence (P12314 16-288 limits assumed): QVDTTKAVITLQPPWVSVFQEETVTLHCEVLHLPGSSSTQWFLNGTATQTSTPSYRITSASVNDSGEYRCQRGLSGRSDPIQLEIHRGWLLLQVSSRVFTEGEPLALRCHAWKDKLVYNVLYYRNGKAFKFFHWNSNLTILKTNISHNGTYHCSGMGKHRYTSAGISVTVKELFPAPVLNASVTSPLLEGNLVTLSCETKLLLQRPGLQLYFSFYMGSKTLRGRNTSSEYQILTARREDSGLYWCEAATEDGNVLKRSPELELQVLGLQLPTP

fold of Fc(gamma) receptor binding activity against SEQ ID NO: 60 and SEQ ID NO: 64 [1]: ~2 fold
Ratio to SEQ ID NO: 52 [2]: 0.44 ratio
B2: insulin-Fc fusion protein of SEQ ID NO: 62 (Fc fusion)
chain: FVNQHLCGSDLVEALALVCGERGFFYTDPTGGGPRRGIVEQCCHSICSLYQLENYCNGGGGAGGGGDCPKCPAPEMLGGPSVFIFPPKPKDTLLIARTPEVTCVVVDLDPEDPEVQISWFVDGKQMQTAKTQPREEQFDGTYRVVSVLPIGHQDWLKGKQFTCKVNNKALPSPIERTISKARGQAHQPSVYVLPPSREELSKNTVSLTCLIKDFFPPDIDVEWQSNGQQEPESKYRTTPPQLDEDGSYFLYSKLSVDKSRWQRGDTFICAVMHEALHNHYTQESLSHSPG
notes: homodimer; also called cNg-D; cNg-NB139-D

IC50 (human insulin receptor [4]): 41 nM
B4: insulin-Fc fusion protein of SEQ ID NO: 110 (Fc fusion)
chain: FVNQHLCGSDLVEALALVCGERGFFYTDPTGGGPRRGIVEQCCHSICSLYQLENYCNGGGGAGGGGGEGPKCPVPEIPGAPSVFIFPPKPKDTLSISRTPEVTCLVVDLGPDDSNVQITWFVDNTEMHTAKTRPREEQFNSTYRVVSVLPILHQDWLKGKEFKCKVNSKSLPSAMERTISKAKGQPHEPQVYVLPPTQEELSENKVSVTCLIKGFHPPDIAVEWEITGQPEPENNYQTTPPQLDSDGTYFLYSRLSVDRSHWQRGNTYTCSVSHEALHSHHTQKSLTQSPG
notes: homodimer

IC50 (human insulin receptor [3]): 22 nM
IC50 (human insulin receptor [4]): 22 nM
B5: insulin-Fc fusion protein of SEQ ID NO: 106 (Fc fusion)
chain: B4 chain with A16Y, A62S
notes: homodimer

IC50 (human insulin receptor [3]): 62 nM
IC50 (human insulin receptor [4]): 62 nM
B6: insulin-Fc fusion protein of SEQ ID NO: 108 (Fc fusion)
chain: FVNQHLCGSDLVEALALVCGERGFFYTDPTGGGPRRGIVEQCCHSICSLYQLENYCNGGGGSGGGGDCPKCPPPEMLGGPSIFIFPPKPKDTLSISRTPEVTCLVVDLGPDDSDVQITWFVDNTQVYTAKTSPREEQFNSTYRVVSVLPILHQDWLKGKEFKCKVNSKSLPSPIERTISKDKGQPHEPQVYVLPPAQEELSRNKVSVTCLIEGFYPSDIAVEWEITGQPEPENNYRTTPPQLDSDGTYFLYSRLSVDRSRWQRGNTYTCSVSHEALHSHHTQKSLTQSPG
notes: about 49% homodimer

EC50 (biotinylated canine FcRn): 3.11 µg/mL
IC50 (human insulin receptor [3]): 2540 nM
B10: insulin-Fc fusion protein of SEQ ID NO: 122 (Fc fusion)
chain: FVNQHLCGSHLVEALELVCGERGFHYGGGGGGSGGGGGIVEQCCTSTCSLDQLENYCGGGGGQGGGGQGGGGQGGGGGGEGPKCPVPEIPGAPSVFIFPPKPKDTLSISRTPEVTCLVVDLGPDDSNVQITWFVDNTEMHTAKTRPREEQFNSTYRVVSVLPILHQDWLKGKEFKCKVNSKSLPSAMERTISKAKGQPHEPQVYVLPPTQEELSENKVSVTCLIKGFHPPDIAVEWEITGQPEPENNYQTTPPQLDSDGTYFLYSRLSVDRSHWQRGNTYTCSVSHEALHSHHTQKSLTQSPG
notes: homodimer

More lines, now with the values behind:

B1: insulin-Fc fusion protein of SEQ ID NO: 60 (Fc fusion)
chain: B2 chain with D139S
notes: homodimer; also called cNg-S; cNg-NB139-S
fold lower Fc(gamma)RI binding than SEQ ID NO: 52 [1]: 4 fold lower
Ratio to SEQ ID NO: 52 [2]: 0.24 ratio

B3: insulin-Fc fusion protein of SEQ ID NO: 112 (Fc fusion)
chain: B4 chain with A62S
notes: Feline IgG2 Fc, B16A insulin polypeptide; homodimer
IC50 (human insulin receptor [3]): 53 nM
IC50 (human insulin receptor [4]): 53 nM

B7: insulin-Fc fusion protein of SEQ ID NO: 38 (Fc fusion)
chain: FVNQHLCGSHLVEALELVCGERGFHYGGGGGGSGGGGGIVEQCCTSTCSLDQLENYCGGGGGQGGGGQGGGGQGGGGGDCPKCPPPEMLGGPSIFIFPPKPKDTLSISRTPEVTCLVVDLGPDDSDVQITWFVDNTQVYTAKTSPREEQFNSTYRVVSVLPILHQDWLKGKEFKCKVNSKSLPSPIERTISKDKGQPHEPQVYVLPPAQEELSRNKVSVTCLIEGFYPSDIAVEWEITGQPEPENNYRTTPPQLDSDGTYFLYSRLSVDRSRWQRGNTYTCSVSHEALHSHHTQKSLTQSPG
notes: homodimer
EC50 (biotinylated canine FcRn): 1.55 µg/mL
IC50 (human insulin receptor [5]): 2400 nM
binding result [1]: binds

B8: insulin-Fc fusion protein of SEQ ID NO: 124 (Fc fusion)
chain: B7 chain with N151S
notes: homodimer
EC50 (biotinylated canine FcRn): 6.92 µg/mL

B9: insulin-Fc fusion protein of SEQ ID NO: 40 (Fc fusion)
chain: B7 chain with E16A, N151S
notes: homodimer
EC50 (biotinylated canine FcRn): 8.16 µg/mL
IC50 (human insulin receptor [5]): 4640 nM
fold less Fc(gamma) receptor activity than SEQ ID NO: 38 [1]: ~4 fold less
